[ ]: non-standard residue; d: D form.
B1: cyclic nNOS β-hairpin peptide D114G (peptide)
peptide: cyclo(THLETTFTGGGTPKTIRVTQ[dP]GQ)
SMILES: CC[C@H](C)[C@@H]1NC(=O)[C@H]([C@@H](C)O)NC(=O)[C@H](CCCCN)NC(=O)[C@@H]2CCCN2C(=O)[C@H]([C@@H](C)O)NC(=O)CNC(=O)CNC(=O)CNC(=O)[C@H]([C@@H](C)O)NC(=O)[C@H](Cc2ccccc2)NC(=O)[C@H]([C@@H](C)O)NC(=O)[C@H]([C@@H](C)O)NC(=O)[C@H](CCC(=O)O)NC(=O)[C@H](CC(C)C)NC(=O)[C@H](Cc2c[nH]cn2)NC(=O)[C@H]([C@@H](C)O)NC(=O)[C@H](CCC(N)=O)NC(=O)CNC(=O)[C@H]2CCCN2C(=O)[C@H](CCC(N)=O)NC(=O)[C@H]([C@@H](C)O)NC(=O)[C@H](C(C)C)NC(=O)[C@H](CCCNC(=N)N)NC1=O
B2: cyclic nNOS β-hairpin peptide H106F (peptide)
peptide: cyclo(TFLETTFTGDGTPKTIRVTQ[dP]GQ)
SMILES: CC[C@H](C)[C@@H]1NC(=O)[C@H]([C@@H](C)O)NC(=O)[C@H](CCCCN)NC(=O)[C@@H]2CCCN2C(=O)[C@H]([C@@H](C)O)NC(=O)CNC(=O)[C@H](CC(=O)O)NC(=O)CNC(=O)[C@H]([C@@H](C)O)NC(=O)[C@H](Cc2ccccc2)NC(=O)[C@H]([C@@H](C)O)NC(=O)[C@H]([C@@H](C)O)NC(=O)[C@H](CCC(=O)O)NC(=O)[C@H](CC(C)C)NC(=O)[C@H](Cc2ccccc2)NC(=O)[C@H]([C@@H](C)O)NC(=O)[C@H](CCC(N)=O)NC(=O)CNC(=O)[C@H]2CCCN2C(=O)[C@H](CCC(N)=O)NC(=O)[C@H]([C@@H](C)O)NC(=O)[C@H](C(C)C)NC(=O)[C@H](CCCNC(=N)N)NC1=O
B3: cyclic nNOS β-hairpin peptide D114R (peptide)
peptide: cyclo(THLETTFTGRGTPKTIRVTQ[dP]GQ)
SMILES: CC[C@H](C)[C@@H]1NC(=O)[C@H]([C@@H](C)O)NC(=O)[C@H](CCCCN)NC(=O)[C@@H]2CCCN2C(=O)[C@H]([C@@H](C)O)NC(=O)CNC(=O)[C@H](CCCNC(=N)N)NC(=O)CNC(=O)[C@H]([C@@H](C)O)NC(=O)[C@H](Cc2ccccc2)NC(=O)[C@H]([C@@H](C)O)NC(=O)[C@H]([C@@H](C)O)NC(=O)[C@H](CCC(=O)O)NC(=O)[C@H](CC(C)C)NC(=O)[C@H](Cc2c[nH]cn2)NC(=O)[C@H]([C@@H](C)O)NC(=O)[C@H](CCC(N)=O)NC(=O)CNC(=O)[C@H]2CCCN2C(=O)[C@H](CCC(N)=O)NC(=O)[C@H]([C@@H](C)O)NC(=O)[C@H](C(C)C)NC(=O)[C@H](CCCNC(=N)N)NC1=O
B4: cyclic nNOS β-hairpin peptide F111V (peptide)
peptide: cyclo(THLETTVTGDGTPKTIRVTQ[dP]GQ)
SMILES: CC[C@H](C)[C@@H]1NC(=O)[C@H]([C@@H](C)O)NC(=O)[C@H](CCCCN)NC(=O)[C@@H]2CCCN2C(=O)[C@H]([C@@H](C)O)NC(=O)CNC(=O)[C@H](CC(=O)O)NC(=O)CNC(=O)[C@H]([C@@H](C)O)NC(=O)[C@H](C(C)C)NC(=O)[C@H]([C@@H](C)O)NC(=O)[C@H]([C@@H](C)O)NC(=O)[C@H](CCC(=O)O)NC(=O)[C@H](CC(C)C)NC(=O)[C@H](Cc2c[nH]cn2)NC(=O)[C@H]([C@@H](C)O)NC(=O)[C@H](CCC(N)=O)NC(=O)CNC(=O)[C@H]2CCCN2C(=O)[C@H](CCC(N)=O)NC(=O)[C@H]([C@@H](C)O)NC(=O)[C@H](C(C)C)NC(=O)[C@H](CCCNC(=N)N)NC1=O
B5: cyclic nNOS β-hairpin peptide D114P (peptide)
peptide: cyclo(THLETTFTGPGTPKTIRVTQ[dP]GQ)
SMILES: CC[C@H](C)[C@@H]1NC(=O)[C@H]([C@@H](C)O)NC(=O)[C@H](CCCCN)NC(=O)[C@@H]2CCCN2C(=O)[C@H]([C@@H](C)O)NC(=O)CNC(=O)[C@@H]2CCCN2C(=O)CNC(=O)[C@H]([C@@H](C)O)NC(=O)[C@H](Cc2ccccc2)NC(=O)[C@H]([C@@H](C)O)NC(=O)[C@H]([C@@H](C)O)NC(=O)[C@H](CCC(=O)O)NC(=O)[C@H](CC(C)C)NC(=O)[C@H](Cc2c[nH]cn2)NC(=O)[C@H]([C@@H](C)O)NC(=O)[C@H](CCC(N)=O)NC(=O)CNC(=O)[C@H]2CCCN2C(=O)[C@H](CCC(N)=O)NC(=O)[C@H]([C@@H](C)O)NC(=O)[C@H](C(C)C)NC(=O)[C@H](CCCNC(=N)N)NC1=O
B6: cyclic nNOS β-hairpin peptide D114K (peptide)
peptide: cyclo(THLETTFTGKGTPKTIRVTQ[dP]GQ)
SMILES: CC[C@H](C)[C@@H]1NC(=O)[C@H]([C@@H](C)O)NC(=O)[C@H](CCCCN)NC(=O)[C@@H]2CCCN2C(=O)[C@H]([C@@H](C)O)NC(=O)CNC(=O)[C@H](CCCCN)NC(=O)CNC(=O)[C@H]([C@@H](C)O)NC(=O)[C@H](Cc2ccccc2)NC(=O)[C@H]([C@@H](C)O)NC(=O)[C@H]([C@@H](C)O)NC(=O)[C@H](CCC(=O)O)NC(=O)[C@H](CC(C)C)NC(=O)[C@H](Cc2c[nH]cn2)NC(=O)[C@H]([C@@H](C)O)NC(=O)[C@H](CCC(N)=O)NC(=O)CNC(=O)[C@H]2CCCN2C(=O)[C@H](CCC(N)=O)NC(=O)[C@H]([C@@H](C)O)NC(=O)[C@H](C(C)C)NC(=O)[C@H](CCCNC(=N)N)NC1=O
B7: cyclic nNOS β-hairpin peptide H106E (peptide)
peptide: cyclo(TELETTFTGDGTPKTIRVTQ[dP]GQ)
SMILES: CC[C@H](C)[C@@H]1NC(=O)[C@H]([C@@H](C)O)NC(=O)[C@H](CCCCN)NC(=O)[C@@H]2CCCN2C(=O)[C@H]([C@@H](C)O)NC(=O)CNC(=O)[C@H](CC(=O)O)NC(=O)CNC(=O)[C@H]([C@@H](C)O)NC(=O)[C@H](Cc2ccccc2)NC(=O)[C@H]([C@@H](C)O)NC(=O)[C@H]([C@@H](C)O)NC(=O)[C@H](CCC(=O)O)NC(=O)[C@H](CC(C)C)NC(=O)[C@H](CCC(=O)O)NC(=O)[C@H]([C@@H](C)O)NC(=O)[C@H](CCC(N)=O)NC(=O)CNC(=O)[C@H]2CCCN2C(=O)[C@H](CCC(N)=O)NC(=O)[C@H]([C@@H](C)O)NC(=O)[C@H](C(C)C)NC(=O)[C@H](CCCNC(=N)N)NC1=O
B8: cyclic nNOS β-hairpin peptide G115R (peptide)
peptide: cyclo(THLETTFTGDRTPKTIRVTQ[dP]GQ)
SMILES: CC[C@H](C)[C@@H]1NC(=O)[C@H]([C@@H](C)O)NC(=O)[C@H](CCCCN)NC(=O)[C@@H]2CCCN2C(=O)[C@H]([C@@H](C)O)NC(=O)[C@H](CCCNC(=N)N)NC(=O)[C@H](CC(=O)O)NC(=O)CNC(=O)[C@H]([C@@H](C)O)NC(=O)[C@H](Cc2ccccc2)NC(=O)[C@H]([C@@H](C)O)NC(=O)[C@H]([C@@H](C)O)NC(=O)[C@H](CCC(=O)O)NC(=O)[C@H](CC(C)C)NC(=O)[C@H](Cc2c[nH]cn2)NC(=O)[C@H]([C@@H](C)O)NC(=O)[C@H](CCC(N)=O)NC(=O)CNC(=O)[C@H]2CCCN2C(=O)[C@H](CCC(N)=O)NC(=O)[C@H]([C@@H](C)O)NC(=O)[C@H](C(C)C)NC(=O)[C@H](CCCNC(=N)N)NC1=O

target: T1, (7× His)-PSD-95-PDZ2 wild type (UniProt P78352 160-246); test: FP competition
T1 construct: domain: PDZ2; recombinant from E. coli; also called PSD-95-PDZ2 WT; not shown: 7x His tag
T1 sequence (P78352 160-246): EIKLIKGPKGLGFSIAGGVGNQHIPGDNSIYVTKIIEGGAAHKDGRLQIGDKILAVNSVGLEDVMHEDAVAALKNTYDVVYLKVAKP

Binder	Ki	Relative Ki (Ki mut/Ki WT)
B1	2.59 µM	1.73
B2	1.19 µM	0.79
B3	0.99 µM	0.66
B4	77.4 µM	51.6
B5	2.4 µM	1.6
B6	2.87 µM	1.91
B7	6.19 µM	4.13
B8	0.75 µM	0.5
